# Results as given in ChEMBL document CHEMBL4706520, “Development of disulfide-derived fructose-1,6-bisphosphatase (FBPase) covalent inhibitors for the treatment of type 2 diabetes” (Eur J Med Chem, 2020).
# B1: Fructose-1,6-bisphosphatase 1 (Homo sapiens), P09467 (protein)
# chain: MADQAPFDTDVNTLTRFVMEEGRKARGTGELTQLLNSLCTAVKAISSAVRKAGIAHLYGIAGSTNVTGDQVKKLDVLSNDLVMNMLKSSFATCVLVSEEDKHAIIVEPEKRGKYVVCFDPLDGSSNIDCLVSVGTIFGIYRKKSTDEPSEKDALQPGRNLVAAGYALYGSATMLVLAMDCGVNCFMLDPAIGEFILVDKDVKIKKKGKIYSLNEGYARDFDPAVTEYIQRKKFPPDNSAPYGARYVGSMVADVHRTLVYGGIFLYPANKKSPNGKLRLLYECNPMAYVMEKAGGMATTGKEAVLDVIPTDIHQRAPVILGSPDDVLEFLKVYEKHSAQ
# Compound: c1csc(SSc2nccs2)n1
# Assay: Covalent inhibition of FBPase WT (unknown origin) assessed as Vmax measured at 45 mins
# Conditions: Homo sapiens
protein,measurement,value
B1,Vmax,4 U/mg
